# Patent publication US11111484B2, “Streptococcus bacteriophage lysins for detection and treatment of gram positive bacteria” (priority 2011, dated 2021)
# Values joined by “and” are separate entries in the source; they are usually repeats but may differ in a detail not shown here. Equal values may be shown once. “Also recorded” adds a separate entry of the source.
# Tests used:
# [1] = test system: vancomycin intermediate sensitivity Staphylococcus aureus (VISA) and vancomycin resistant Staphylococcus aureus (VRSA) strains; assay: in vitro tests / standard MIC analysis of staphylococci (FIG. 18); format: cell-based; conditions: comparable in vitro tests
# Method: FIG. 18. PlySS2 was tested by standard MIC analysis for its ability to kill strains of staphylococci. Included in the testing were resistant staphylococci such as Vancomycin resistant (VRSA), Vancomycin intermediate (VISA) and methicillin resistant (MRSA) staphylococci. The three VRSA strains tested represent half of all known isolates.
# [2] = test system: MRSA strain MW2 and S. pyogenes strain MGAS5005; assay: murine septicemia model, mixed MRSA and S. pyogenes infection; format: in vivo, FVB/NJ mice; conditions: PlySs2 2 mg, ClyS 1 mg + PlyC 1 mg
# Method: The Rockefeller University's Institutional Animal Care and Use Committee approved all in vivo protocols. A systemic infection model described in Daniel, A. et al., was used to test for the in vivo efficacy of PlySs2 against multiple gram-positive bacteria. Briefly, 4-5 week old female FVB/NJ mice (weight range 15 to 20 g) were obtained from The Jackson Laboratory (Bar Harbor, Me.). After a period of acclimation, mice were injected intraperitoneally (IP) with 0.5 ml of mid log-phase (OD600 0.5) bacteria diluted with 5% hog gastric mucin (Sigma) in saline. Bacterial suspensions contained ˜5×10^5 CFU/ml of MW2, a PVL toxin-encoding MRSA strain, ˜1×10^7 of MGAS5005, an M1 serotype of Streptococcus pyogenes that is virulent in humans and mice (Musser), or a combination of both bacteria simultaneously at the above concentrations for the mix infection experiments. Actual bacterial inoculation titers were calculated by serial dilution and plating to Columbia blood agar plates for each experiment. […] The survival rate for each experimental group was monitored every 12 hours for the first 24 hours then every 24 hours up to 10 days post-infection. The data were statistically analyzed by Kaplan Meier Survival curves and a Logrank test performed for 95% confidence intervals using the Prism computer program (GraphPad Software; La Jolla, Calif.). […]
# [3] = PlySs2 solubility / concentrated solution; format: physicochemical; conditions: ≈20 mg/ml solution
# Method: The aforementioned preparation led to a highly pure lysin preparation in just two chromatographic steps (FIG. 6). With a predicted pi of 9.01, PlySs2 flowed directly through the DEAE column at pH=7.4 leaving the bulk of the contaminant proteins stuck to the DEAE column. PlySs2 eluted cleanly in the shoulder of the flow through and at 17 mM NaCl, being purified from proteins that rapidly flowed through the CM resin. This preparation yielded ≈60 mg of protein per liter of E. coli culture at ≈1.5 mg/ml with >99% purity. The yield increased to ≈150 mg per liter of E. coli culture at ≈2.0 mg/ml with >90% purity when the CM column step was forwent. If necessary, the latter product was: dialyzed (into 5 mM PB, 15 mM NaCl); lyophilized; reconstituted (at 10% of the original volume); centrifuged; and filter-sterilized (to remove any insoluble material). […] PlySs2 can be produced more efficiently, and at a higher concentration, than many published lysins (Daniel A et al (2010) Antimicrob Agents Chemother 54(4):1602-1612; Wang, Y. et al (2009) Curr Microbiol 58(6):609-615; Nelson, D et al (2006) Proc Natl Acad Sci USA 103(28):10765-10770).
# PlySs2 is more tractable and stable than previously developed lysins. PlySs2 preparation is straightforward, yielding large quantities in few steps. In addition, a highly soluble lysin is essential, because it allows for ready use at high concentrations. […]
# MRSA strain MW2 = assay: resistance assay, exposure to incrementally increasing concentrations; format: cell-based, Staphylococcus aureus; conditions: concentration doubled daily from 1/32 to 4× MIC over 8 days
# [4] = test system: S. pyogenes strain MGAS5005; assay: murine septicemia model, S. pyogenes infection alone; format: in vivo, FVB/NJ mice; conditions: PlySs2 2 mg
# Method: The Rockefeller University's Institutional Animal Care and Use Committee approved all in vivo protocols. A systemic infection model described in Daniel, A. et al., was used to test for the in vivo efficacy of PlySs2 against multiple gram-positive bacteria. Briefly, 4-5 week old female FVB/NJ mice (weight range 15 to 20 g) were obtained from The Jackson Laboratory (Bar Harbor, Me.). After a period of acclimation, mice were injected intraperitoneally (IP) with 0.5 ml of mid log-phase (OD600 0.5) bacteria diluted with 5% hog gastric mucin (Sigma) in saline. Bacterial suspensions contained ˜5×10^5 CFU/ml of MW2, a PVL toxin-encoding MRSA strain, ˜1×10^7 of MGAS5005, an M1 serotype of Streptococcus pyogenes that is virulent in humans and mice (Musser), or a combination of both bacteria simultaneously at the above concentrations for the mix infection experiments. Actual bacterial inoculation titers were calculated by serial dilution and plating to Columbia blood agar plates for each experiment. Mice became bacteremic within one to three hours and contained MRSA and/or S. pyogenes in their organs (including spleen, liver, kidney, and heart/blood) ([50], and unpublished observations). […] The survival rate for each experimental group was monitored every 12 hours for the first 24 hours then every 24 hours up to 10 days post-infection. The data were statistically analyzed by Kaplan Meier Survival curves and a Logrank test performed for 95% confidence intervals using the Prism computer program (GraphPad Software; La Jolla, Calif.).
# To determine if the broad lytic activity of PlySs2 could provide in vivo protection from infection with gram-positive pathogens, either alone or as a mixed infection, FVB/NJ mice were intraperitoneally injected with ˜5×10^5 CFU of MRSA strain MW2, ˜1×10^7 of S. pyogenes strain MGAS5005 and/or both bacteria simultaneously at the concentrations above. […] Mice were then monitored for survival over ten days. […]
# S. aureus RN4220 = assay: ΔPlySs1 OD600 lysis, 1 hr, optimal buffering conditions; format: cell-based, Staphylococcus aureus
# S. equi 700400 = assay: as above; format: cell-based, Streptococcus equi
# S. agalactiae type II = assay: as above; format: cell-based, Streptococcus agalactiae
# B. cereus 14579 = assay: as above; format: cell-based, Bacillus cereus
molecule,measurement,setting,value
"PlySs2: Streptococcus suis prophage lysin, SEQ ID NO:3; N-terminal CHAP domain and C-terminal SH3-type 5 domain (protein, listed as Streptococcus suis) MTTVNEALNNVRAQVGSGVSVGNGECYALASWYERMISPDATVGLGAGVGWVSGAIGDTISAKNIGSSYNWQANGWTVSTSGPFKAGQIVTLGATPGNPYGHVVIVEAVDGDRLTILEQNYGGKRYPVRNYYSAASYRQQVVHYITPPGTVAQSAPNLAGSRSYRETGTMTVTVDALNVRRAPNTSGEIVAVYKRGESFDYDTVIIDVNGYVWVSYIGGSGKRNYVATGATKDGKRFGNAWGTFK",effectiveness against VISA and VRSA,[1],similarly effective
same,survival of mixed infection,[2],92%
same,survival of mixed infection (mice surviving/total),[2],22 of 24 and 22/24
same,activity after lyophilization and reconstitution to concentrated solution,[3],retained the concentration-adjusted activity
same,development of resistance,MRSA strain MW2,"Neither S. aureus strain developed resistance; also recorded: None of MRSA strain MW2, MSSA strain 8325, nor S. pyogenes strain 5005 developed resistance"
same,mice died at day three (dead/total),[4],1/16
same,survival over 10 days,[4]; PlyC 1 mg,94%
same,survival over 10 days (mice surviving/total),[4]; PlyC 1 mg,15/16
"ΔPlySs1: truncated PlySs1 lysin, SEQ ID NO:2, N-terminal 254 amino acids: only N-terminal enzymatic and central binding domains (protein, listed as Streptococcus suis) MTINLETSIRWMSDRVGKVSYSMDYRNGPNSYDCSSAVYYALMAGGAISAGWAVNTEYMHDWLIRNGYVLVAENKPFNAQRHDVCILGKRGYSSGAGGHVVIFVDNVNVIHCNYARNGISIDNYNQVHRGMYYYLYRPANQPSISNKSLDQLVKETLAGVHGNGDTRKASLGSQYEAVMAVINGKASASEKSDEELAREVLAGKHGAGEDRKRSLGPRYEPVQAKVNELLKAKEKPSETAKNEPQTVQFKEDGDL",lysis value after 1 hr (treated/untreated OD600 ratio),S. aureus RN4220; 6.5 μg/ml,0.89
same,lysis value after 1 hr (treated/untreated OD600 ratio),S. aureus RN4220; 13 μg/ml,0.78
same,lysis value after 1 hr (treated/untreated OD600 ratio),S. aureus RN4220; 30 μg/ml,0.55
same,lysis value after 1 hr (treated/untreated OD600 ratio),S. aureus RN4220; 65 μg/ml,0.31
same,lysis value after 1 hr (treated/untreated OD600 ratio),S. aureus RN4220; 130 μg/ml,0.10
same,lysis value after 1 hr (treated/untreated OD600 ratio),S. equi 700400; 6.5 μg/ml,0.48
same,lysis value after 1 hr (treated/untreated OD600 ratio),S. equi 700400; 13 μg/ml,0.25
same,lysis value after 1 hr (treated/untreated OD600 ratio),S. equi 700400; 30 μg/ml,0.15
same,lysis value after 1 hr (treated/untreated OD600 ratio),S. equi 700400; 65 μg/ml,0.07
same,lysis value after 1 hr (treated/untreated OD600 ratio),S. equi 700400; 130 μg/ml,0.09
same,lysis value after 1 hr (treated/untreated OD600 ratio),S. agalactiae type II; 6.5 μg/ml,0.61
same,lysis value after 1 hr (treated/untreated OD600 ratio),S. agalactiae type II; 13 μg/ml,0.21
same,lysis value after 1 hr (treated/untreated OD600 ratio),S. agalactiae type II; 30 μg/ml,0.11
same,lysis value after 1 hr (treated/untreated OD600 ratio),S. agalactiae type II; 65 μg/ml,0.08
same,lysis value after 1 hr (treated/untreated OD600 ratio),S. agalactiae type II; 130 μg/ml,0.04
same,lysis value after 1 hr (treated/untreated OD600 ratio),B. cereus 14579; 6.5 μg/ml,0.93
same,lysis value after 1 hr (treated/untreated OD600 ratio),B. cereus 14579; 13 μg/ml,0.92
same,lysis value after 1 hr (treated/untreated OD600 ratio),B. cereus 14579; 30 μg/ml,0.86
same,lysis value after 1 hr (treated/untreated OD600 ratio),B. cereus 14579; 65 μg/ml,0.90
same,lysis value after 1 hr (treated/untreated OD600 ratio),B. cereus 14579; 130 μg/ml,0.86
